Source: publication PMC3379994 (2012)

B1: SH3 domain from Lyn, displayed on M13 phage (domain or fragment)
chain: EQGDIVVALYPYDGIHPDDLSFKKGEKMKVLEEHGEWWKAKSLLTKKEGFIPSNYVAKLNT
B2: SH3 domain from Yes, displayed on M13 phage (domain or fragment)
chain: not shown
B3: SH3 domain from p85α, displayed on M13 phage (domain or fragment)
chain: AEGYQYRALYDYKKEREEDIDLHLGDILTVNKGSLVALGFSDGQEARPEEIGWLNGYNETTGERGDFPGTYVEYIGR
B4: SH3 domain from Fyn, displayed on M13 phage (domain or fragment)
chain: not shown
B5: SH3 domain #3 from Intersectin 2, displayed on M13 phage (domain or fragment)
chain: SVGEEYIALYPYSSVEPGDLTFTEGEEILVTQKDGEWWTGSIGDRSGIFPSNYVKPKDQ
B6: SH3 domain from Osteoclast stimulating factor 1, displayed on M13 phage (domain or fragment)
chain: GQVKVFRALYTFEPRTPDELYFEEGDIIYITDMSDTNWWKGTSKGRTGLIPSNYVAEQAE
B7: SH3 domain from Hck, displayed on M13 phage (domain or fragment)
chain: not shown
B8: SH3 domain #2 from Nck1, displayed on M13 phage (domain or fragment)
chain: DLNMPAYVKFNYMAEREDELSLIKGTKVIVMEKCSDGWWRGSYNGQVGWFPSNYVTEEGD

Molecular target: His-tagged Sam68 (Src-associated in mitosis, 68 kDa) (human (cDNA from HEK293T cells), UniProt Q07666 1-443)
Sequence (Q07666 whole entry): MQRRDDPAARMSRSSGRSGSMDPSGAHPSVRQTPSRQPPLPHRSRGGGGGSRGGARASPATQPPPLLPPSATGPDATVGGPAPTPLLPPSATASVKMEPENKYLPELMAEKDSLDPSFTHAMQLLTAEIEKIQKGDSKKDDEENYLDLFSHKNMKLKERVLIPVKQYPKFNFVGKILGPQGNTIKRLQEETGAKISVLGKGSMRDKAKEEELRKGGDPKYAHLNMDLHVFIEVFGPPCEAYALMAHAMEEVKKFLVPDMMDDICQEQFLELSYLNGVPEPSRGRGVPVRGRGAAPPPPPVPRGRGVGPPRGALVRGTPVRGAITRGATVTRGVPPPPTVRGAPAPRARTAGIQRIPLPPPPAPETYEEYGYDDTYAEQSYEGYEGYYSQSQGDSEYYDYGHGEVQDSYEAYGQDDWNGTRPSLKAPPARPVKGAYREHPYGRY
Assay: ELISA

Binder	Kd
B1	7.9 nM
B2	5.5 nM
B3	13 nM
B4	41 nM
B5	59 nM
B6	22 nM
B7	31 nM
B8	31 nM
